Values of other authors as cited in publication PMC4740388.
“And” between values parts separate entries of the source, which are not always exact repeats. Equal values may be shown once. Read-outs that look alike come from different tables or passages of the source. One block for each substance: values may come before it.

Key:
[1] = target: VEGFR2 ectodomain (Homo sapiens) (UniProt P35968)
[2] = target: VEGFR1 ectodomain (Homo sapiens) (UniProt P17948)
[3] = target: Integrin αvβ3 (Homo sapiens) (UniProt P06756)
Nucleolin (Homo sapiens) = Nucleolin (Homo sapiens) (UniProt P19338)
[4] = target: Integrin α5β1 (Homo sapiens) (UniProt P08648)
[5] = target: Integrin αvβ3 (Homo sapiens) (UniProt P06756); remark: listed apart in the source

Chain of Integrin αvβ3 (Homo sapiens) (P06756 31-992, chain 1 of 2): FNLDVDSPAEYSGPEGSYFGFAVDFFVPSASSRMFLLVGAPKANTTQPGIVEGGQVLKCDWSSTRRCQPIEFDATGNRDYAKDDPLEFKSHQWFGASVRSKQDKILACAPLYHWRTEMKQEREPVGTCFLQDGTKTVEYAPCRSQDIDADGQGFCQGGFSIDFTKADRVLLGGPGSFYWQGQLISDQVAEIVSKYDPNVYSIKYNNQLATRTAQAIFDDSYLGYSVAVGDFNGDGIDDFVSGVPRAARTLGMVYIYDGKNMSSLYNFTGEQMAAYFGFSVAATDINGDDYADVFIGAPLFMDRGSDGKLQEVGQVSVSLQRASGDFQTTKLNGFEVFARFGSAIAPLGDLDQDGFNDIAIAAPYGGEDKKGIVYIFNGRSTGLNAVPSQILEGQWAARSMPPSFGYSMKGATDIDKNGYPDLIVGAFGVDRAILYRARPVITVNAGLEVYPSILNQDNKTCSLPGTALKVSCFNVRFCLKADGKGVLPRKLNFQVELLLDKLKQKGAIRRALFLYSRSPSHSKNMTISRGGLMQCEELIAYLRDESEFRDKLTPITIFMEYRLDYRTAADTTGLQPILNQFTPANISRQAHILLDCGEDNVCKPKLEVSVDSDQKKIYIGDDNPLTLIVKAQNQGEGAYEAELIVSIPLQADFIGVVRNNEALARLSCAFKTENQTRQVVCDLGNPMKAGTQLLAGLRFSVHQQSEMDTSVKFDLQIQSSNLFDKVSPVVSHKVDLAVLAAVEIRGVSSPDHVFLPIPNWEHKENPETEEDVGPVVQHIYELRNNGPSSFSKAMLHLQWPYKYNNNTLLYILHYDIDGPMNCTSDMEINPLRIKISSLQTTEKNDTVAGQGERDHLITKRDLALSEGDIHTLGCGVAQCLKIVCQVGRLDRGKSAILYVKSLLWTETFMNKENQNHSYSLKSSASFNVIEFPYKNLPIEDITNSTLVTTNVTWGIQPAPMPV
Chain of Integrin αvβ3 (Homo sapiens) (P05106 27-718, chain 2 of 2, further chain): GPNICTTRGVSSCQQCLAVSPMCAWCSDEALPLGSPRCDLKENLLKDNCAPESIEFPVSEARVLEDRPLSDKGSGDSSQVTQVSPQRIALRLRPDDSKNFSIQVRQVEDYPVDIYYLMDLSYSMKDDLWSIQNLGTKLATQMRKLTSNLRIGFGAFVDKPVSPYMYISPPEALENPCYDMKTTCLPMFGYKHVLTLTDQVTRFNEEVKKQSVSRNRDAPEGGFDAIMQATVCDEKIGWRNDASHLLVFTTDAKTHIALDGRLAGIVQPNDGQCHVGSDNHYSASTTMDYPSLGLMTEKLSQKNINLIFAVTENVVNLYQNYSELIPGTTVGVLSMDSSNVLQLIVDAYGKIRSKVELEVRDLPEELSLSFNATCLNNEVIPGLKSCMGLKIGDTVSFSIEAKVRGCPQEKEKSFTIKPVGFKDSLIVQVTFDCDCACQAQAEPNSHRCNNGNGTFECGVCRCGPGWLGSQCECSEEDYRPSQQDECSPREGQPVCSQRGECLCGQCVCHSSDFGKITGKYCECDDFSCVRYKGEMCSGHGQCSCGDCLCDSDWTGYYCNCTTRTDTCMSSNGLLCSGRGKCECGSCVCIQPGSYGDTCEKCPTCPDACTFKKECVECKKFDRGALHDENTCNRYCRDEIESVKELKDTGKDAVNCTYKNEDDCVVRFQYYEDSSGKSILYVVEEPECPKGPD
Chain of Endostatin endostatin (P39060 1569-1754): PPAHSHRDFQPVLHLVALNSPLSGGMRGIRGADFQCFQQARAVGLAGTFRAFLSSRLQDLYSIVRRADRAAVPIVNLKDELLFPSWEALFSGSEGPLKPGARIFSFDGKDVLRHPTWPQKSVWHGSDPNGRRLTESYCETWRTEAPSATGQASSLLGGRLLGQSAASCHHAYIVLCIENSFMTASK
Chain of Endorepellin endorepellin (P98160 3684-4391): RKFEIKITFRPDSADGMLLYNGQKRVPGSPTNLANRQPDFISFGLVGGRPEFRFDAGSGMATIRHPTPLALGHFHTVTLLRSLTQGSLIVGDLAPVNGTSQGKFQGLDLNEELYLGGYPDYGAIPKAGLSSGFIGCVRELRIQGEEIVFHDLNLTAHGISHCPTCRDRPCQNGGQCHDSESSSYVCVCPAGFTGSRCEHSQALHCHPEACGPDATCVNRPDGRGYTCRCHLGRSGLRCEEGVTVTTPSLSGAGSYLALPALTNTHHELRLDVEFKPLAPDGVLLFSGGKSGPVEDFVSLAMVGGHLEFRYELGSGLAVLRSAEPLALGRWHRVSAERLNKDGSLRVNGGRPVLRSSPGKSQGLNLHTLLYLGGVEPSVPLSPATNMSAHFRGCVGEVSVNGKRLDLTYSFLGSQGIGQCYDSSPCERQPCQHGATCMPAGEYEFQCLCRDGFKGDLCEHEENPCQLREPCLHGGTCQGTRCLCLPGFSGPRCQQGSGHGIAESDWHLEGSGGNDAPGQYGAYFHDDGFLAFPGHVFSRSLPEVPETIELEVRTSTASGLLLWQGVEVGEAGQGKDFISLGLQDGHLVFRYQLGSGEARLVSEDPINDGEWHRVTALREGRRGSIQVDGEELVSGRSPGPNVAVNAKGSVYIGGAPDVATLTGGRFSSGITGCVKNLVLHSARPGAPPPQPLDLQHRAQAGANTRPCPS
Chain of Integrin α5β1 (Homo sapiens) (P08648 42-995, chain 1 of 2): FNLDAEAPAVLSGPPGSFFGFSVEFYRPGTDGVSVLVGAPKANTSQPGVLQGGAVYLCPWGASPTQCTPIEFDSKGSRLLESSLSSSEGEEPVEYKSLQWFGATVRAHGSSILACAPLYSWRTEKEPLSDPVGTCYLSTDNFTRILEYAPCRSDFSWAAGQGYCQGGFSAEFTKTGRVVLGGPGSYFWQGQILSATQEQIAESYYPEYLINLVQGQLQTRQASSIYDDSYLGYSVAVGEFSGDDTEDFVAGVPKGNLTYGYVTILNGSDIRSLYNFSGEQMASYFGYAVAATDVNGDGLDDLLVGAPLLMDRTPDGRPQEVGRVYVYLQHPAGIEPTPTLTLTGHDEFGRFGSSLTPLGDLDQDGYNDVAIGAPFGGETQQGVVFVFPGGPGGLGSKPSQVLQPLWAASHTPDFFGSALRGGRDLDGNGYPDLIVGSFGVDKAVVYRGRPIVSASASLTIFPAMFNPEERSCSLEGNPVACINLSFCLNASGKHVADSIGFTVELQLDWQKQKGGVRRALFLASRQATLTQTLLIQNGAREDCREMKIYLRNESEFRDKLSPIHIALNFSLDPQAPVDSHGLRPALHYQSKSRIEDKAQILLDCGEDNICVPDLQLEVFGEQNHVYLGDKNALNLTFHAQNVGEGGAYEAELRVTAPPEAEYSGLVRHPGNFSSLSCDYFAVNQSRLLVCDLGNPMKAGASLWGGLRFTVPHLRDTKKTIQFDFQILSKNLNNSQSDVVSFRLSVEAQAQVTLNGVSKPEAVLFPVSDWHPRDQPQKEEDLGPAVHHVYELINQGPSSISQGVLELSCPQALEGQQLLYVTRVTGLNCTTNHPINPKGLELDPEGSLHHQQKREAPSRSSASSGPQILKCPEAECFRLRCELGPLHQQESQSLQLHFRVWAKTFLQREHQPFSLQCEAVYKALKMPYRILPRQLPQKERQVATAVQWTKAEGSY
Chain of Integrin α5β1 (Homo sapiens) (P05556 21-728, chain 2 of 2, further chain): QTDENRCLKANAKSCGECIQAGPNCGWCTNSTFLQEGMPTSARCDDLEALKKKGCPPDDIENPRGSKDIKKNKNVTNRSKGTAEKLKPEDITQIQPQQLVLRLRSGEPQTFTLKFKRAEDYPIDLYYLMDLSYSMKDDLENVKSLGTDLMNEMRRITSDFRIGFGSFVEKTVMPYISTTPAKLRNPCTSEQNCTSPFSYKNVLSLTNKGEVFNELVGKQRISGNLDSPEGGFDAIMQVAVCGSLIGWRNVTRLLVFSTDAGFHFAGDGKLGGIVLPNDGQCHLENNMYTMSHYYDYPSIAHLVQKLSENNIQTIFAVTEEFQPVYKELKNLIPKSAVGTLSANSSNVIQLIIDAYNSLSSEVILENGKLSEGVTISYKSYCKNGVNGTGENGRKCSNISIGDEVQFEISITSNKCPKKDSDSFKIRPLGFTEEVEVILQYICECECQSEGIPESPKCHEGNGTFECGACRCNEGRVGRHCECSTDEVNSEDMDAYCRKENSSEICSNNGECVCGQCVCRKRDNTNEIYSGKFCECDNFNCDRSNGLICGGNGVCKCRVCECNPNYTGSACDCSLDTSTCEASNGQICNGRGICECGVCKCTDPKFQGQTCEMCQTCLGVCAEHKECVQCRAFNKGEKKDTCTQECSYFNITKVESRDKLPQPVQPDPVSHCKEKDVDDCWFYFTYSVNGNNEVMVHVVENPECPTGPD
Chain of Tetrastatin tetrastatin (P53420 1465-1690): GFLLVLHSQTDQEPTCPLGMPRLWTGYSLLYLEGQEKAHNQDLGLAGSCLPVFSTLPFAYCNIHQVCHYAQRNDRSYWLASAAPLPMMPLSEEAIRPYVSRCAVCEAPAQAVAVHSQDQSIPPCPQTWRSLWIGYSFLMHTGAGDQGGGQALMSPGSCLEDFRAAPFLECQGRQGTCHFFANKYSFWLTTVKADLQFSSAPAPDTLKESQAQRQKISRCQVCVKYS

Kd [1]: 0.9 nM
Kd [2]: 1 nM
Substance: Endorepellin endorepellin (from UniProt P98160)

Kd [3]: 501 nM and 1200 nM
Kd (Nucleolin (Homo sapiens)): 13 nM
Kd [4]: 975 nM and 451 nM
Substance: Endostatin endostatin (from UniProt P39060)

Kd [5]: 148 nM
Substance: Tetrastatin tetrastatin (from UniProt P53420)
